Values of other authors, collected in publication PMC3310959.

Target: E-cadherin (Mus musculus) (UniProt P09803)

Kd: 97 µM
Substance: E-cadherin (from UniProt P09803)
